Reference: PMC6508626

Tests used:
Assay in all cases: co-IP
[1] = molecular target: HA-tagged NS1 S252A (Dengue virus 2 (strain 16681))
[2] = molecular target: HA-tagged NS1 P320A (Dengue virus 2 (strain 16681))
[3] = molecular target: Carboxy-terminally HA-tagged wildtype NS1 from pTM_NS1_HA (Dengue virus 2 (strain 16681)) (UniProt P29990)
[4] = molecular target: HA-tagged NS1 T317A (Dengue virus 2 (strain 16681))
[5] = molecular target: HA-tagged NS1 K189A (Dengue virus 2 (strain 16681))
[6] = molecular target: HA-tagged NS1 D197A (Dengue virus 2 (strain 16681))
[7] = molecular target: HA-tagged NS1 R336A (Dengue virus 2 (strain 16681))
[8] = molecular target: HA-tagged NS1 L153A (Dengue virus 2 (strain 16681))
[9] = molecular target: HA-tagged NS1 Y32A (Dengue virus 2 (strain 16681))
[10] = molecular target: HA-tagged NS1 G161A (Dengue virus 2 (strain 16681))
[11] = molecular target: HA-tagged NS1 W168A (Dengue virus 2 (strain 16681))
[12] = molecular target: HA-tagged NS1 R62A (Dengue virus 2 (strain 16681))
[13] = molecular target: HA-tagged NS1 W8A (Dengue virus 2 (strain 16681))
[14] = molecular target: HA-tagged NS1 P319A (Dengue virus 2 (strain 16681))
[15] = molecular target: HA-tagged NS1 D136A (Dengue virus 2 (strain 16681))
[16] = molecular target: HA-tagged NS1 Y158A (Dengue virus 2 (strain 16681))
[17] = molecular target: HA-tagged NS1 W311A (Dengue virus 2 (strain 16681))
[18] = molecular target: HA-tagged NS1 W150A (Dengue virus 2 (strain 16681))
[19] = molecular target: HA-tagged NS1 E334A (Dengue virus 2 (strain 16681))

Q: Which NS1—NS4A-2K-4B interaction (fold of WT) [1] does the source give for “NS4A-2K-4B polyprotein from pTM_NS4A-2K-4B (natural protein)” here?
A: 3.18 fold of WT

Q: What about the NS1—NS4A-2K-4B interaction (fold of WT) [2] of the same substance?
A: 0.86 fold of WT

Q: What about the NS1—NS4A-2K-4B interaction (fold of WT) [3] of the same substance?
A: 1 fold of WT

Q: What about the NS1—NS4A-2K-4B interaction (fold of WT) [4] of the same substance?
A: 2.08 fold of WT

Q: What about the NS1—NS4A-2K-4B interaction (fold of WT) [5] of the same substance?
A: 1.33 fold of WT

Q: What about the NS1—NS4A-2K-4B interaction (fold of WT) [6] of the same substance?
A: 4.09 fold of WT

Q: What about the NS1—NS4A-2K-4B interaction (fold of WT) [7] of the same substance?
A: 0.26 fold of WT

Q: What about the NS1—NS4A-2K-4B interaction (fold of WT) [8] of the same substance?
A: 1.67 fold of WT

Q: What about the NS1—NS4A-2K-4B interaction (fold of WT) [9] of the same substance?
A: 0.31 fold of WT

Q: And the NS1—NS4A-2K-4B interaction (fold of WT) [10]?
A: 0.07 fold of WT

Q: And the NS1—NS4A-2K-4B interaction (fold of WT) [11]?
A: 0.02 fold of WT

Q: And the NS1—NS4A-2K-4B interaction (fold of WT) [12]?
A: 3.97 fold of WT

Q: And the NS1—NS4A-2K-4B interaction (fold of WT) [13]?
A: 0.99 fold of WT

Q: What about the NS1—NS4A-2K-4B interaction (fold of WT) [14] of the same substance?
A: 0.37 fold of WT

Q: What about the NS1—NS4A-2K-4B interaction (fold of WT) [15] of the same substance?
A: 0.21 fold of WT

Q: What about the NS1—NS4A-2K-4B interaction (fold of WT) [16] of the same substance?
A: 3.01 fold of WT

Q: And the NS1—NS4A-2K-4B interaction (fold of WT) [17]?
A: 0.31 fold of WT

Q: What about the NS1—NS4A-2K-4B interaction (fold of WT) [18] of the same substance?
A: 0.38 fold of WT

Q: What about the NS1—NS4A-2K-4B interaction (fold of WT) [19] of the same substance?
A: 0.18 fold of WT
